Experimental data published in patent publication US20220332804A1 (CSL INNOVATION, published 2022).

Key:
Experiment in all cases: SPR, mAb captured, C2 mutant analyte;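 further: Anti-C2 mAbs captured on goat anti-human IgG Biacore CM5 chips, alanine or serine C2 surface mutants flowed over at 37 °C, double-referenced sensorgrams fitted to a 1:1 binding model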
human C2 S469A = target: T1, human C2 S469A (human, UniProt P06681 21-752)
T1 sequence: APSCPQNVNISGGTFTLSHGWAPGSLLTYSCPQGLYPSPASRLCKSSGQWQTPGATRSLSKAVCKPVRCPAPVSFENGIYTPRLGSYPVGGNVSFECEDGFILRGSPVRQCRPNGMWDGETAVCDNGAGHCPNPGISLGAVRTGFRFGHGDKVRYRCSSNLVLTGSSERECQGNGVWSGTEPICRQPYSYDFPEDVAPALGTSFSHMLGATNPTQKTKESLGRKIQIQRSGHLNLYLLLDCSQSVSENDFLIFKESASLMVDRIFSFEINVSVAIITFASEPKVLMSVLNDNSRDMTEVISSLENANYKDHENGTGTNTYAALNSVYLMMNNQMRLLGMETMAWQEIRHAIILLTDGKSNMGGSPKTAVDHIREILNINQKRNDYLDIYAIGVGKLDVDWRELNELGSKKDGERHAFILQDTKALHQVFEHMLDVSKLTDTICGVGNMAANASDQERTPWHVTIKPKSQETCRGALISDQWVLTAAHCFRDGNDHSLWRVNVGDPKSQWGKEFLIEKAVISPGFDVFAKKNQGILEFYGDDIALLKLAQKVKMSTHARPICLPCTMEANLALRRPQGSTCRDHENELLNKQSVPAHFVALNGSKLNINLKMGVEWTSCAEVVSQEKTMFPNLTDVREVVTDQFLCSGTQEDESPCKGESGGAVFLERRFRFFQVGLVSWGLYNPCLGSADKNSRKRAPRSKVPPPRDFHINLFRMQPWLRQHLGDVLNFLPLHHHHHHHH

human C2 M452A = target: T2, human C2 M452A (human, UniProt P06681 21-752)
T2 sequence: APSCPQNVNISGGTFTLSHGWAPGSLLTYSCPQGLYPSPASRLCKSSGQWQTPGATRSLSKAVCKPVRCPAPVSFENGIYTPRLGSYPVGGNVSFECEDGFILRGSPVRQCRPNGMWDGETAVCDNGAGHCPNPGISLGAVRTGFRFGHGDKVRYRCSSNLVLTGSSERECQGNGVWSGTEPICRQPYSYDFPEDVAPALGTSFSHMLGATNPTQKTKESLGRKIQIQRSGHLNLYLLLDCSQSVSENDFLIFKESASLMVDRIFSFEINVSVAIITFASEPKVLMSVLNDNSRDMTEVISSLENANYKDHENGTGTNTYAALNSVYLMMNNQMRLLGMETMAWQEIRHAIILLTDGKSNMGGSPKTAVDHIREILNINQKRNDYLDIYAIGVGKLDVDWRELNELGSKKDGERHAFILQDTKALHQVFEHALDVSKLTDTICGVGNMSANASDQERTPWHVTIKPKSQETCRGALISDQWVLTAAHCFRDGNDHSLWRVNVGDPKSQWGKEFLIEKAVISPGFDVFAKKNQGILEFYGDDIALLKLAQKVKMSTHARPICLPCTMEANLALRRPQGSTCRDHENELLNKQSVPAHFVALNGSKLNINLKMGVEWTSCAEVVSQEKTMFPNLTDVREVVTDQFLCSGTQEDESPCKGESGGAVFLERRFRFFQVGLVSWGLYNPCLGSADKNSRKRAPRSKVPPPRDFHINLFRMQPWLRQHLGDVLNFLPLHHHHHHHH

human C2 R688A = target: T3, human C2 R688A (human, UniProt P06681 21-752)
T3 sequence: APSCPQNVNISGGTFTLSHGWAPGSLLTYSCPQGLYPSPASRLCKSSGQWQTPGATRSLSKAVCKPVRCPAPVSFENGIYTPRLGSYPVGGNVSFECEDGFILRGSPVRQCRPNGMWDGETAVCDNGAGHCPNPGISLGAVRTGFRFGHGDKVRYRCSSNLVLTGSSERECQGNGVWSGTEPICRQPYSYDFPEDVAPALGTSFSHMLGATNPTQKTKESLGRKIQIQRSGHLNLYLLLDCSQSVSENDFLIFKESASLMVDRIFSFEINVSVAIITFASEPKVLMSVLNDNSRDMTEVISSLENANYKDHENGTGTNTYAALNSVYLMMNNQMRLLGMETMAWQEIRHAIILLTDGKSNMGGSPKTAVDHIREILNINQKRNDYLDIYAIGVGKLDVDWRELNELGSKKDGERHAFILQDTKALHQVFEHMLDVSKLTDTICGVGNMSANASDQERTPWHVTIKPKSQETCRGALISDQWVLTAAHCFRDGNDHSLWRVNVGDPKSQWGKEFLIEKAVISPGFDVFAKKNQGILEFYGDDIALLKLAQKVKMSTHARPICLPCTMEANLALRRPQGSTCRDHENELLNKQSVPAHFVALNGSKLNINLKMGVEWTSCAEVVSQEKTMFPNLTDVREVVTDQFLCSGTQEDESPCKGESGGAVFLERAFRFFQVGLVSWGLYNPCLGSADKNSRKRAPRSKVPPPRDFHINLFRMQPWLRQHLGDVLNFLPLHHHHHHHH

human C2 Q447A = target: T4, human C2 Q447A (human, UniProt P06681 21-752)
T4 sequence: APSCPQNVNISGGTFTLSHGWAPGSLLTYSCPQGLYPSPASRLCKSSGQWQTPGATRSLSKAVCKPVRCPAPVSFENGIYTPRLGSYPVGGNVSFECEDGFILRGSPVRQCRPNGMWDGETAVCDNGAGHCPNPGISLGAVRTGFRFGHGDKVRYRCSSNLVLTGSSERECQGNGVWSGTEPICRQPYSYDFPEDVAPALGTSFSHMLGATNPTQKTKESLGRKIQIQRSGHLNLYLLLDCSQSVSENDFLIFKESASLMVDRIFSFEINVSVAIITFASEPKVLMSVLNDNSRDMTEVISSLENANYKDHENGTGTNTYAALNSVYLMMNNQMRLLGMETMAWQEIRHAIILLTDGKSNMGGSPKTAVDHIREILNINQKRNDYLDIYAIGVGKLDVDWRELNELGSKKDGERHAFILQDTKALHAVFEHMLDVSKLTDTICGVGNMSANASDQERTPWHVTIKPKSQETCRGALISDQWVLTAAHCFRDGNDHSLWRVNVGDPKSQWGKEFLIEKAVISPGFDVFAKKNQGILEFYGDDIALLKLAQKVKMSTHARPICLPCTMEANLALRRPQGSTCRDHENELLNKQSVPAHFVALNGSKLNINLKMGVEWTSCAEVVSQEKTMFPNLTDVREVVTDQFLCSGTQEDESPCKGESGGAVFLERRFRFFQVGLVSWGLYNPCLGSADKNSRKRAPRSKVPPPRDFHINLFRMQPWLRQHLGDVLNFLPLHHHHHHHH

B1: RF16-214 (antibody, V domains shown)
VH: EVQLLESGGGLVQPGGSLRLSCAASGFTFSWYQMMWVRQAPGKGLEWVSRIYPSGGGTAYADSVKGRFTISRDNSKNTLYLQMNSLRAEDTAVYYCARDAGYGDNWGQGTLVTVSS
VL: QSALTQPPSVSVSPGQTASITCSGDKLGEKYASWYQQKAGQSPVMVIYQDRKRPSGIPERFSGSNSGNTATLTISGTQAMDEADYYCQAWDTRAVVFGGGTKLTVLG
Binder B1 has a Kd (human C2 S469A) of 106 nM, a Kd (human C2 M452A) of 21.3 nM and a Kd (human C2 R688A) of 96.2 nM. The Kd (human C2 Q447A) was 133 nM.
